Source: a protein production outcome set (Wang et al. 2014)
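Also: failed if final PepcDB status was selected cloned or expressed and not failed if soluble or beyond.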

Assay: label from the status in PepcDB records
For “MKIIIVGGGVTGSELARRLIRKKHDVVLIERDEETARHAANRLDCMVVQAAGNDTQILLDAGIKKAEAMIAVTDSDELNMIICGIADSLAPQVIKIARVRNEDYVKALNFSEERTLGINALVYPDEEAALAVIQAIEHGAVSDILSFENSSYELSRFNVCEKSTLDGLAVFDIRKYVDIPFIVVSVEQNGKNRIPSGDTILTAGTRVSILTKPEHIKRFYELSGFETQEFKKIALVGMGRIGKSIAEYLLKNSKGKSFLSKLLPINLNQKWKISIIETNDKKAKEVAAEFPEASIYKADVTDESFVDEIGLDSFDLVICTTPNYEFNMIACAYLKTLGVYKTISLVQSAVLENVAYKIGVDVAVSFKDVVVDSIMSHLVSENVTSVHTMGDGKLEIIELQVSEKSPVLGQKLKDISQHGVYLVLLVTDENGEQIPTGDTEVKAGYKIVFIVKSSRSDEIIKIFGGN”, the protein production was “failed”. In the case of “MKIILFLTLIVFTSCELYHYQECVRGTTVLLKEPCPSGTYEGNSPFHPLADNKFALTCTSTHFAFACADGTRHTYQLRARSVSPKLFIRQEEVQQELYSPLFLIVAALVFLILCFTIKRKTE”, the protein production is reported as “not failed”. For “MKILAIINPISGIGSKSNIPSLIADVFAHDPHELFITYSQRAGHARELAAQAVEKHYDCVIAVGGDGTVNEIAQSLRYTDVVLGIVPKGSGNGLARALKLPLTVGKALEVIRAGHVRTIDCCEADSR”, the protein production was “failed”. For “MKILIVSNTALGDTILSTPLFRETRLALPKAHITALLNPVNAMLFETNPYLDKIELYGGRWRGFLGAWWKLWRRGFDVALLGHSNDPQITPLCLLLGISKIIKIPNHKNPWQRFHHNPLEHHHHHH”, the protein production was “failed”. For “MKILKNSYESYIIAEFFKYFLITFLFFFFVFFINQILFFMRILLQNYVPFFKAFIFIIYSLPMVIALSPPFASLISVILTIHKFKLHNEILAFRSIGISIFDLLVPFFKLGIVIAFVSFISNDILLPLGSIGRLKIFNEIKEEVPHLVLKPYSSKQYGDLIFVSGEKSENGYKNVTFFDNTGLKGFDRIFMAKNLDIRKENFQVYFILNDVLSIALTDSESGFYDYFYADKMKYSIDQVTFSDSFLLNYVTPSQMSMRDVIKLIKKQNNLIADSNIKNNLEGDFLSLNFSNLYLNYLYNQNYYVDESYVFENLNYMYNLNLNFKPYQDRSMKQNLALFNLEFYQKISLPLSVLFFIFLAFSMGMYSNRKYSIILELVISIIVCVFYWVMFIGGKVYTVQYAPSPIIVTILPNLILIIAGAILFLRLLKK”, the protein production was “failed”. With “MKILLLGGNGFIGRRLAARLIEAGHELSAPSRVELDLARPNQDWAAWVDGVDAVANLAGAFRQGRAGGFEAIHHAGPLRLAALARAHGVRRWVQLSALGAAAHAGAPFLSSKGRGDAALLDCGMEAVVARPSLIYGADGASSRLLLRLARLPFWLLPEGGGQRIQPVAAADVAEGLQRLIEGDARGVIDFVGAAEASLADYLRQLRRLQGVGGAAWLCPVPAWLAAGLAAACGCWPGSLLNRDSLRMLRQGSTADPAAFAALLGRQPLSFRQFGEVA” the protein production was “failed”. With “MKILQILSRLYVADLNPALEFYEELLETPVAMRFEIPQTGVELAQISTILLIAGSEEALKPFRNTQATFLVDSLDKFKTFLEENGAEIIRGPSKVPTGRNMTVRHSDGSVIEYVEHSKIE” the protein production was “not failed”. For “MKILVFGGTRFFGKKLVERLVSEGHDVTIGTRGKTEDNFGDTVKRVVLNRESRDALFQLAKEDWDVIYDNICFSPKEALYAVDAFKGKVKRYIYTSSLSVYSQKGRALVEADFNPEHYEIVIGDKEDFDYGEGKRLAEAVFFQKASFPVVAVRFPIVLGLDDYTKRLHFHINHIKNHQEIGISNGQAEIGFITSDEAAHFLEWVGVESDLTGPVNATSNGTYALNGFIKMLEEKIGELALVEEVTDDVDDSPFGIEKTYYLDNAKATEAGFVFNDLKVWLPALVTDILKENLEHHHHHH”, the protein production was “failed”. For “MKIMTKTLNRTTLGLALGLASSQLLAAGFALNEQSISGMGTGFAGRSSSADDASTVFGNPAGMSRIKREQISVGAAAVIAKTDIDNGRGTFGGSNDGDMVPVVGVPMGYYVKPIDDHWAFGLGVYVPFGLVTDYEKGFAGRYWGDKSHVQIVTFQPTVSYAFNDKVSIGFGPTINRIDGELTSATLNAATPGRNDGKVKIEGDDTAIGFNAGILVQATDTTRLGLTYHSKVDYKLKGKTKIEGSGFGPFGGQKYDASLDISTPESVDFSITQQLDENWTVYAGSTWTRWSRLQDITVNNDGVPALLGGSAGPIGTITEEQNWHDTWAHAIGASYKVNKEWTLRTGFSVDQSPTNNVNRSPRIPTGDRKIISFGAGWSPTDDLTIDVAYSYLREDETKIRDSSATKGSYSADYRNTAHGLGTSVTYRF”, the protein production was “failed”. In the case of “MKISEVLVKVGDGVHTLLLDRPIVRDGRKFDAPLLWMVVLMTAFGLLMIYSASVYLASKEGGDQFFYLTRQAGFVVAGLIASGFLWFLCRMRTWRRLVPWIFALSGLLLVAVLIAGREINGATRWIPLGPLNFQPTELFKLAVILYLASLFTRREEVLRSMESLGWQSIWRGTANLIMSATNPQARRETLEMYGRFRAIILPIMLVAFGLVLIMVQPDFGSFVVITVITVGMLFLAGLPWKYFFVLVGSVLGGMVLMITAAPYRVQRVVAFLDPWKDPQGAGYQLTHSLMAIGRGEWFGMGLGASLSKRGFLPEAHTDFIFAIIAEEFGFFGMCVLIFCYGWLVVRAFSIGKQSRDLGLTFNAYIASGIGIWIGIQSFFNIGVNIGALPTKGLTLPLMSYGGSSVFFMLISMMLLLRIDYENRQKMRGYRVE”, the protein production is reported as “failed”. In the case of “MKISLVTVTFNSAKTLCDTIHSVLSQSYTNIEYIIVDGLSNDETVTLIKEYEPLFQGRLKWISEKDKGLYDAMNKGIRMSTGDIVGIINSDDFYHRGDVLEKVAESFEAGETEAIYGDVRFVNPDNLDRTVRYYSSKRFVPSLFRFGFMPAHPTFFTYRKYFDQFGYYKTNYKIAADYELLVRFLYVHRLKSKYLPLDFMKMRTGGASTASIKSNILLNKEIVRACKENGIWTCYPLLLLKYLVKVFELIFIKKLEHHHHHH”, the protein production is reported as “not failed”. With “MKISPSLMCMDLLKFKEQIEFIDSHADYFHIDIMDGHFVPNLTLSPFFVSQVKKLATKPLDCHLMVTRPQDYIAQLARAGADFITLHPETINGQAFRLIDEIRRHDMKVGLILNPETPVEAMKYYIHKADKITVMTVDPGFAGQPFIPEMLDKLAELKAWREREGLEYEIEVDGSCNQATYEKLMAAGADVFIVGTSGLFNHAENIDEAWRIMTAQILAAKSEVQPHAKTA” the protein production was “failed”. With “MKITRQIFIYFSFLMAVALFFSCKTTEKAVKSPVTEETKKAEKTGKKSPREEFNDKLTHLSKKGDLEGILKLIDESDPELTKDFKIQYLKLSILISMRKTKEAETFADELSKAYPNNTEILYAQVMLAQAENNTQKKNQYLKKILAINPKDSRALTEQGLDFYSAKKYNDARRKFIEAYKADPKCTEALIGLGRINYLEGKLDQAEANLTAVLEQEPNNSTALAELARIKSETNRMYQALQDINRAAELEPNNPSHWNDIGSYNLTIGRKEEAKKAYDKVIELTPDSYVAYIYRAGINDELGYKEDALADYIKVCNLYPPYYFALEGAGILLWEKGDWLNAGTAFLKALNKAPGSYQYALLYAISLYKQNKKPDAKKFMQNYLKSINRTEKENEYFLCRLFIDFAGDSELINRATAETDMVKKGRLFFYLGEFYNLTKKYTLAEKCYVQVMSIENPAFFEYRFAKKAMDEFNSSNGK” the protein production was “failed”. In the case of “MKITVIVPTYRRTKDLTRCLESLEKQSRPADEVLVVVRDTDVETWQFLETIAPHSLPLHTTTVRVPGVVAAMNAGLDIAQGDIIAFTDDDAAPHSNWLAQIETHFLAHEQIAGVGGRDWVYHGDRLEDGTCPVVGQVHWFGRVIGNHHIGIGKPREVDVLKGVNMSFRRSAVHGLRFDQRMLGTGAQVHFEVAFCLALKRAGWKLIYDPQIGVNHYPAQRFDEDQRQSFNHLAVTNAVHNETLALLEHLSPTQQLTFLLWATLVGTRDSMGLIQFLRFLPSDRALAGQKLLAAWYGRWRGWRTWQSSIRFAQIKN”, the protein production is reported as “failed”. With “MKIVGIYLAAGKSRRTGPGLHKLYLPTGNTLLGNKALHTSLSSNLSDVIVVSNQPSWLLHYTQVERVHILSCEKSCLGQSYSLHCGLEKAESMNADGVVVMLADQPFITVKLLNSLIDSYEHLPQLDYVAASFQGIPQPPILFSKGIFPSLKKLKGDQGARSIFFDKSFQGKITVYSDAKLFYDVNTIEDYNVIKNSLLLEHHHHHH” the protein production was “failed”. For “MKIVIAPDSYKESLSALEVATAIEQGFREIWPDADYLKLPLADGGEGTVEAMVEATAGRIVHVEVTGPLGHRVNAFYGLSGDARSAFIEMAAASGLEQVPPAQRDPLKTTSWGTGELIRHALDAGVEHIIIGIGGSATNDGGAGMVQALGARLRDAQGNDIAQGGIGLETLASIDISGLDKRLSACHIEVACDVTNPLTGKEGASAVFGPQKGATPEMIERLDTALTRYAHLIARDLHVDVLDLAGGGAAGGMGAALYAFCGAQLRRGIEIVTDALHLEACLADADLVITGEGRIDSQTIHGKVPIGVANIAKRYNKPVIGIAGSLTADVSVVHEHGLDAVFSVIYTICTLEDALKNASENVRMTARNVAATLKAGQQLR”, the protein production was “not failed”. In the case of “MKIVIIGGFLGGGKTTVLNHLLAESLKESLKPAVIMNEFGKMSVDGALVSEDIPLSELTEGCICCAMKADVSEQLHQLYLKEQPDIVFIECSGIAEPVSVLDACLTPILAPFTTITHMIGVIDASMYKHIKSFPKDIQGLFYEQLAYCSVLFVNKIDSADVETTSKLLKDLEVINPEADIQVGMHGSVTLPISVRQMTATSDNKHESLHKTINHQFVQSPVTCTKAEFIKRLACLPSHIYRLKGFMTFEDTTHTYLIQFTQGQYELTPVAFSKKVPEYLVLIGKGISKEDYQCLEQLEHHHHHH”, the protein production is reported as “failed”. With “MKKASEYYYYLGDICWRKEKTDSAKYYFMEGIKTDETYAMNYVGIGIITMKSNATEGQRSFDKALQMTSQKNSQVLNAIGEYYILEADKAELPKGIALLKKSTEIDAKNAMSWILLGDAYGKQAEGSKQAESYGKAANLFHSVPLLKMKYGKMYAAARNKDLSIKYYNEGLAADPTYGPIYRELGDLYNRFRQYDLAIQNYKKYLTYIDSNDDVEFRYADFLFKNNNYAEAIEVFNKLEAKKYNSPYIYNRRAVCYYELEHHHHHH” the protein production was “failed”. With “MKKESLFRYAREHFNSEPEYLWSNLPDYAVLRHDHGDKWFGIVMSVRGSTLGLKTDDKVDILDVKVRPEYIGSLRQKEGVLPAYHMNKEHWISVILSGPLSTKEIHELLADSHELTSGLEHHHHHH” the protein production was “not failed”. For “MKKFAIMGLGTFGVRMLDELIKIGAEVIIIEQNKDLIEMYKSKASSAIVLEEISELSVRKILPSKVDTVIVDFGRKVELSVISTTILKNLGIANIVVRAQSDEHGRLLKTVGATRIIYPDSEAAKRTTPILAADLLLKFMPISKNLALAEVGVEARYVGKSLAESNIRKDMGVNIIARRKKESEDFIFMDDPEYKFEEDDVLLVVASEEHIYNFSGGKISLKNNLKKDGEIKPSIFKNLFSSKKV”, the protein production was “failed”. For “MKKFGLGVYLLLLGILGGSLIILGAIVAPIVFKASSVLPELHLTPFESGKLMAQIFVRFNYVLGAIGFVVLLYEIISFIYYKRSLVYLILGVAIGALCLLFVFYYTPYILNAQKAGEAALQSAEFARSHAQSEWLFKELFVLVCALFFWRLLGKNVL”, the protein production was “failed”. In the case of “MKKFIILLSLLILLPLTAASKPLIPIMKTLFTDVTGTVPDAEEIAHKAELFRQQTGIAPFIVVLPDINNEASLRQNGKAMLAHASSSLSDVKGSVLLLFTTREPRLIMITNGQVESGLDDKHLGLLIENHTLAYLNADLWYQGINNALAVLQAQILKQSTPPLTYYPHPGQQHENAPPGSTNTLGFIAWAATFILFSRIFYYTTRFIYALKFAVAMTIANMGYQALCLYIDNSFAITRISPLWAGLIGVCTFIAALLLTSKR”, the protein production is reported as “failed”. For “MKKFLAIITLCLLFFSFTIGCERASLNRIGKDVYYMQIKGEGTIEKVDGRNLRNYTLPAYDEDGVKKQITFRSTKKENDHKLNKYAFLRLYVDQDDNSKNEISSIEVKSYEEIQKADLPEKVKDKFTIKLEHHHHHH”, the protein production was “not failed”. For “MKKFVTRRLGRKKRRDTEIVLPTKDDDCREEHGSEVSCMEDVEEMLQELSMKGEFVFGSFWRQGDSAANDFDFGNSQYEIANYKDHRSLSLLITQDVLLER”, the protein production was “failed”.
